According to the Immune Epitope Database (IEDB):
pIC50: −log10 of the molar value.

Tests used:
HLA-A*02:02 = test: IEDB peptide-MHC binding, purified MHC/competitive/radioactivity; ≥ and ≤ were set here for values at or beyond the usual limits of such assays
HLA-A*02:06 = test: as above
HLA-A*02:01 = test: as above
HLA-A*02:03 = test: as above
HLA-A*68:02 = test: IEDB peptide-MHC binding, cellular MHC/competitive/fluorescence; ≥ and ≤ were set here for values at or beyond the usual limits of such assays
[1] = source organism: Hepacivirus hominis
[2] = source organism: Vaccinia virus WR
[3] = source organism: Influenza A virus
[4] = source organism: Mammarenavirus machupoense
[5] = source organism: Mammarenavirus lassaense

Row | Sequence | pIC50 (HLA-A*02:02; [2]) | pIC50 (HLA-A*02:06; [2]) | pIC50 (HLA-A*02:01; [2]) | pIC50 (HLA-A*02:03; [2]) | pIC50 (HLA-A*68:02; [2]) | other results
1 | KLLPQLPGV | – | – | – | – | – | pIC50 (HLA-A*02:02; [1]): 7.29; pIC50 (HLA-A*02:06; [1]): 8.77; pIC50 (HLA-A*02:01; [1]): 8.77; pIC50 (HLA-A*02:03; [1]): 8.28; pIC50 (HLA-A*68:02; [1]): 4.37
2 | LLLEWLAEVV | – | – | – | – | – | pIC50 (HLA-A*02:02; source organism: SARS-CoV1): 9.51; pIC50 (HLA-A*02:06; source organism: SARS-CoV1): 9.28; pIC50 (HLA-A*02:01; source organism: SARS-CoV1): 9.43; pIC50 (HLA-A*02:03; source organism: SARS-CoV1): 9.09; pIC50 (HLA-A*68:02; source organism: SARS-CoV1): 4.97
3 | LLVTLAILTA | – | – | – | – | – | pIC50 (HLA-A*02:02; source organism: SARS-CoV1): 8.36; pIC50 (HLA-A*02:06; source organism: SARS-CoV1): 7.49; pIC50 (HLA-A*02:01; source organism: SARS-CoV1): 7.48; pIC50 (HLA-A*02:03; source organism: SARS-CoV1): 7.37; pIC50 (HLA-A*68:02; source organism: SARS-CoV1): 4.78
4 | FLTNKLLLFA | – | – | – | – | – | pIC50 (HLA-A*02:02; source organism: SARS-CoV1): 9.38; pIC50 (HLA-A*02:06; source organism: SARS-CoV1): 8.12; pIC50 (HLA-A*02:01; source organism: SARS-CoV1): 8.21; pIC50 (HLA-A*02:03; source organism: SARS-CoV1): 8.85; pIC50 (HLA-A*68:02; source organism: SARS-CoV1): 4.93
5 | GLLYFILFFV | – | – | – | – | – | pIC50 (HLA-A*02:02; [1]): 6.85; pIC50 (HLA-A*02:06; [1]): 6.17; pIC50 (HLA-A*02:01; [1]): 7.29; pIC50 (HLA-A*02:03; [1]): 6.73; pIC50 (HLA-A*68:02; [1]): 4.63
6 | KIILFQNNDI | 5.79 | 5.66 | 5.44 | 5.70 | 4.76 | –
7 | SMSQELAEL | 8.40 | 6.73 | 7.08 | 8.11 | 4.37 | –
8 | LLMALPHQA | – | – | – | – | – | pIC50 (HLA-A*02:02; [1]): 7.28; pIC50 (HLA-A*02:06; [1]): 5.81; pIC50 (HLA-A*02:01; [1]): 7.14; pIC50 (HLA-A*02:03; [1]): 8.00; pIC50 (HLA-A*68:02; [1]): 5.01
9 | ILSNKLLYAA | 8.09 | 6.82 | 7.29 | 5.95 | 4.92 | –
10 | ALYGVWPLLL | – | – | – | – | – | pIC50 (HLA-A*02:02; [1]): 8.05; pIC50 (HLA-A*02:06; [1]): 6.78; pIC50 (HLA-A*02:01; [1]): 8.05; pIC50 (HLA-A*02:03; [1]): 8.12; pIC50 (HLA-A*68:02; [1]): 4.69
11 | YISRDELWA | 6.48 | 5.92 | 6.12 | 6.62 | 4.28 | –
12 | LAELLEMKYA | 6.00 | 5.61 | 5.60 | 5.98 | 4.63 | –
13 | QLVKDESIQL | 6.80 | 5.74 | 6.04 | 6.89 | 5.10 | –
14 | LLLSICLGSL | – | – | – | – | – | pIC50 (HLA-A*02:02; source organism: SARS-CoV1): 7.70; pIC50 (HLA-A*02:06; source organism: SARS-CoV1): 6.59; pIC50 (HLA-A*02:01; source organism: SARS-CoV1): 7.35; pIC50 (HLA-A*02:03; source organism: SARS-CoV1): 6.98; pIC50 (HLA-A*68:02; source organism: SARS-CoV1): 4.26
15 | LLNVQTLISL | 7.62 | 7.01 | 7.14 | 7.80 | 4.84 | –
16 | YLIRALTL | – | – | – | – | – | pIC50 (HLA-A*02:02; [3]): 6.67; pIC50 (HLA-A*02:06; [3]): 5.60; pIC50 (HLA-A*02:01; [3]): 6.22; pIC50 (HLA-A*02:03; [3]): 6.84; pIC50 (HLA-A*68:02; [3]): 5.02
17 | RILGAGCFV | – | – | – | – | – | pIC50 (HLA-A*02:02; source organism: SARS-CoV1): 7.62; pIC50 (HLA-A*02:06; source organism: SARS-CoV1): 7.42; pIC50 (HLA-A*02:01; source organism: SARS-CoV1): 7.70; pIC50 (HLA-A*02:03; source organism: SARS-CoV1): 7.28; pIC50 (HLA-A*68:02; source organism: SARS-CoV1): 5.15

Row | Sequence | pIC50 (HLA-A*02:02; [2]) | pIC50 (HLA-A*02:06; [2]) | pIC50 (HLA-A*02:01; [2]) | pIC50 (HLA-A*02:03; [2]) | pIC50 (HLA-A*68:02; [2]) | other results
18 | GLSQFTHTV | – | – | – | – | – | pIC50 (HLA-A*02:02; [4]): 8.28; pIC50 (HLA-A*02:06; [4]): 6.48; pIC50 (HLA-A*02:01; [4]): 7.74; pIC50 (HLA-A*02:03; [4]): 8.11; pIC50 (HLA-A*68:02; [4]): 4.82
19 | YLSGTDDEVI | 8.20 | 6.02 | 6.66 | 6.68 | 4.80 | –
20 | GIADIRDKYM | 9.16 | 5.75 | 5.96 | 7.32 | 5.23 | –
21 | KIVQLPKRGV | 5.39 | 5.65 | 5.65 | 7.29 | 4.20 | –
22 | LLDCIMYQS | – | – | – | – | – | pIC50 (HLA-A*02:02; [4]): 5.81; pIC50 (HLA-A*02:06; [4]): 5.48; pIC50 (HLA-A*02:01; [4]): 5.96; pIC50 (HLA-A*02:03; [4]): 5.64; pIC50 (HLA-A*68:02; [4]): 4.95
23 | SMMVILPDKI | 7.55 | 8.24 | 8.21 | 7.72 | 5.14 | –
24 | QLLKILDNL | 6.64 | 6.87 | 6.36 | 6.50 | 4.66 | –
25 | TILATLNTL | 6.62 | 7.59 | 6.76 | 7.47 | 4.73 | –
26 | IALCKVTVPT | 5.71 | 6.19 | 5.67 | 5.65 | ≤ 4.15 | –
27 | RLFTRCAVI | 7.03 | 5.55 | 6.68 | 6.60 | 5.18 | –
28 | VMWKCLIRL | – | – | – | – | – | pIC50 (HLA-A*02:02; [1]): 6.42; pIC50 (HLA-A*02:06; [1]): 6.02; pIC50 (HLA-A*02:01; [1]): 7.28; pIC50 (HLA-A*02:03; [1]): 6.08; pIC50 (HLA-A*68:02; [1]): 5.12
29 | LLWDYMCIS | – | – | – | – | – | pIC50 (HLA-A*02:02; [5]): 6.83; pIC50 (HLA-A*02:06; [5]): 6.39; pIC50 (HLA-A*02:01; [5]): 7.35; pIC50 (HLA-A*02:03; [5]): 6.22; pIC50 (HLA-A*68:02; [5]): 4.90
30 | IIGEPIIVA | 5.64 | 5.87 | 5.84 | 5.32 | 5.19 | –
31 | GLLLLCVGV | – | – | – | – | – | pIC50 (HLA-A*02:02; [1]): 6.32; pIC50 (HLA-A*02:06; [1]): 6.05; pIC50 (HLA-A*02:01; [1]): 7.37; pIC50 (HLA-A*02:03; [1]): 6.55; pIC50 (HLA-A*68:02; [1]): 4.31
32 | SINNQLMYDI | 6.31 | 5.32 | 5.62 | 6.32 | 5.19 | –
33 | CLWWTCYMLV | – | – | – | – | – | pIC50 (HLA-A*02:02; [1]): 5.73; pIC50 (HLA-A*02:06; [1]): 5.57; pIC50 (HLA-A*02:01; [1]): 6.57; pIC50 (HLA-A*02:03; [1]): 6.05; pIC50 (HLA-A*68:02; [1]): 4.99
34 | RIKSVLDII | 6.95 | 5.68 | 5.33 | 7.74 | 4.84 | –
